Measured values reported in paper PMC6048556.

Experiments:
[1] = biological target: PIP30/FAM192A (endogenous) (human (endogenous in U2OS, HeLa, U937)) (UniProt Q9GZU8); test: co-IP
[2] = biological target: PA28γ (endogenous) (human (endogenous in U2OS, HeLa, U937)) (UniProt P61289); test: co-IP

Chain of UniProt Q9GZU8 (Q9GZU8 whole entry): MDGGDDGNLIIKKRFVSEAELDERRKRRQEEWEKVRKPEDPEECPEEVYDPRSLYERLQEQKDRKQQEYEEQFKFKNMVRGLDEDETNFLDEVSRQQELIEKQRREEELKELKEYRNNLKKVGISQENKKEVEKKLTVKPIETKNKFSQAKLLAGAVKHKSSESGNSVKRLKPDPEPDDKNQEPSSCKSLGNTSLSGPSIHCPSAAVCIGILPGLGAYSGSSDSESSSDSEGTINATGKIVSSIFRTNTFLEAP

Row | percent coprecipitated [1] | percent coprecipitated [2] | Substance
1 | > 70% |  | PA28γ (endogenous) (from UniProt P61289 1-254) (natural protein)
2 |  | > 70% | PIP30/FAM192A (endogenous) (from UniProt Q9GZU8 1-254) (natural protein)
